The record followed here is patent publication US20120283168A1.

Square brackets hold non-standard residues; d marks the D form. Oic = O=C(O)[C@@H]1C[C@@H]2CCCC[C@@H]2N1; Tic = O=C(O)[C@@H]1Cc2ccccc2CN1; Dab = NCC[C@H](N)C(=O)O; Ac4c = NC1(C(=O)O)CCC1; Aib = CC(C)(N)C(=O)O

For this assay, the target named is human CCR10 (human) (UniProt P46092). As to the kind of experiment: cell-based or functional assay.
human CCR10 (human), sequence (P46092 whole entry): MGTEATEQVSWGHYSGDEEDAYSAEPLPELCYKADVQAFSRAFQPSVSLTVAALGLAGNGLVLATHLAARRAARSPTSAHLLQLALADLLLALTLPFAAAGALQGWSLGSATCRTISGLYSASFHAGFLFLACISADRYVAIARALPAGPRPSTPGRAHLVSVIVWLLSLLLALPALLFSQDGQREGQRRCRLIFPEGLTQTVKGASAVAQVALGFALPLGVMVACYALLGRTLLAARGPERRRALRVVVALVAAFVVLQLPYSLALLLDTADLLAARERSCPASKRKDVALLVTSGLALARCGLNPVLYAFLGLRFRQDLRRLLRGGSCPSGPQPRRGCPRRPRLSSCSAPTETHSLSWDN

Turning to “cyclo(-Trp-Cyp-Trp-Thr-^DPro-Oic-) (peptide)”, the IC50 (nM) Calcium Flux Assay amounted to 20.4 nM and the IC50 (nM) Chemotaxis Assay is 5.4 nM.
As to “cyclo(-Trp-Ac8c-Trp-Dab-^DPro-Oic-) (peptide)”, the IC50 (nM) Calcium Flux Assay was found to be 706 nM and the IC50 (nM) Chemotaxis Assay came out at 257 nM.
For the substance “cyclo(-Trp-Cyp-Trp-Ser-^DPro-Oic-) (peptide)”, the IC50 (nM) Calcium Flux Assay is 61.6 nM and the IC50 (nM) Chemotaxis Assay came to 1.4 nM.
“cyclo(-Trp-Cyp-Trp-Dab-^DPro-Hyp(CONHPh)-) (peptide)”: the IC50 (nM) Calcium Flux Assay amounted to 150 nM and the IC50 (nM) Chemotaxis Assay came to 184 nM.
As to “cyclo(-hTyr-Cyp-Trp-Dab-^DPro-Oic-) (peptide)”, the IC50 (nM) Calcium Flux Assay worked out at 516 nM and the IC50 (nM) Chemotaxis Assay was found to be 13 nM.
With “cyclo(-Trp-Cyp-Ala(2Furyl)-Dab-^DPro-Oic-) (peptide)”, the IC50 (nM) Calcium Flux Assay came to 132 nM.
For the substance “cyclo(-Trp-Cyp-Trp-Dab-^DPro-Pro((4R)4BrBn)-) (peptide)”, the IC50 (nM) Calcium Flux Assay came out at 15.8 nM and the IC50 (nM) Chemotaxis Assay is 9 nM.
As to “cyclo(-Trp-Cyp-Trp-Dab(Dab)-^DPro-Oic-) (peptide)”, the IC50 (nM) Calcium Flux Assay came out at 567 nM and the IC50 (nM) Chemotaxis Assay is 50.2 nM.
Turning to “cyclo(-2Nal-Cyp-Trp-Gln-^DPro-Tic-) (peptide)”, the IC50 (nM) Calcium Flux Assay came to 9.2 nM and the IC50 (nM) Chemotaxis Assay came to 2 nM.
For the substance “cyclo(-Trp-Cyp-Trp-Dab(MeO(CH2)2NHCO)-^DPro-Oic-) (peptide)”, the IC50 (nM) Calcium Flux Assay was determined as 24.2 nM and the IC50 (nM) Chemotaxis Assay stood at 5.3 nM.
Turning to “cyclo(-Trp-Cyp-Trp-Lys(4Oxa)-^DPro-Oic-) (peptide)”, the IC50 (nM) Calcium Flux Assay amounted to 107 nM and the IC50 (nM) Chemotaxis Assay worked out at 5.9 nM.
On to “cyclo(-Phe(4CN)-Cyp-Trp-Ser-^DPro-Oic-) (peptide)”, for which the IC50 (nM) Calcium Flux Assay is 80.3 nM.
“cyclo(-Trp-Cyp-Trp-Dab(4Me2NPhSO2)-^DPro-Oic-) (peptide)”: the IC50 (nM) Calcium Flux Assay was 6.4 nM.
For the substance “cyclo(-Trp-Cyp-Trp-Dab-^DPro-Pro((4R)3CNBn)-) (peptide)”, the IC50 (nM) Calcium Flux Assay is 27.9 nM and the IC50 (nM) Chemotaxis Assay amounted to 3.8 nM.
With “cyclo(-Phe(4CN)-Cyp-Trp-Ser-^DPro-Hyp(4BrBn)-) (peptide)”, the IC50 (nM) Calcium Flux Assay came out at 5.3 nM and the IC50 (nM) Chemotaxis Assay worked out at 0.6 nM.
“cyclo(-Trp-Chx-Trp-Dab-^DPro-Oic-) (peptide)”: the IC50 (nM) Calcium Flux Assay was determined as 333 nM and the IC50 (nM) Chemotaxis Assay stood at 3.1 nM.
The corresponding values for “cyclo(-Trp-Cyp-Trp-Met(O2)-^DPro-Oic-) (peptide)” are 4.8 nM and 1.2 nM.
As to “cyclo(-Trp-^DLAtc-Trp-Dab-^DPro-Oic-) (peptide)”, the IC50 (nM) Calcium Flux Assay turned out to be 608 nM.
For “cyclo(-Trp-Cyp-Trp-Dab-^DPro-Hyp(Bn)-) (peptide)”, the IC50 (nM) Calcium Flux Assay was determined as 65.8 nM and the IC50 (nM) Chemotaxis Assay came to 14 nM.
With “cyclo(-Bip-Cyp-Trp-Dab-^DPro-Oic-) (peptide)”, the IC50 (nM) Calcium Flux Assay was 8.1 nM and the IC50 (nM) Chemotaxis Assay turned out to be 1.8 nM.
Taken in the same sequence, the figures for “cyclo(-Trp-Cyp-Trp-Dab-^DPro-Pro((4R)Bn)-) (peptide)” were 26.1 nM and 2.3 nM.
cyclo(W[Ac4c]W[Dab][dP][Oic]): the IC50 (nM) Calcium Flux Assay amounted to 353 nM and the IC50 (nM) Chemotaxis Assay is 1.7 nM.
The corresponding values for “cyclo(-Phe(4CF3)-Cyp-Trp-Dab-^DPip-Pro((4R)Ph)-) (peptide)” are 14.8 nM and 22 nM.
For “cyclo(-Phe(4CF3)-Cyp-Trp-Dab-^DPro-Hyp(4BrBn)-) (peptide)”, the IC50 (nM) Calcium Flux Assay stood at 22.6 nM.
Turning to “cyclo(-Trp-Cyp-Phe(4F)-Ser-^DPro-Oic-) (peptide)”, the IC50 (nM) Calcium Flux Assay stood at 8.8 nM and the IC50 (nM) Chemotaxis Assay is 12 nM.
Consider “cyclo(-Tyr(4MeOCOBn)-Cyp-Trp-Dab-^DPro-Oic-) (peptide)”, for which the IC50 (nM) Calcium Flux Assay was found to be 16.7 nM and the IC50 (nM) Chemotaxis Assay amounted to 2.3 nM.
For “cyclo(-Trp-Cyp-Ala(2Quin)-Dab-^DPro-Oic-) (peptide)”, the IC50 (nM) Calcium Flux Assay stood at 283 nM and the IC50 (nM) Chemotaxis Assay is 30.3 nM.
Turning to “cyclo(-Phe(4CF3)-Cyp-Trp-3Pal-^DPic-Oic-) (peptide)”, the IC50 (nM) Calcium Flux Assay worked out at 63.2 nM and the IC50 (nM) Chemotaxis Assay came out at 2.7 nM.
Take “cyclo(-Trp-Cyp-Trp-Dap-^DPro-Oic-) (peptide)”: the IC50 (nM) Calcium Flux Assay turned out to be 52.7 nM.
Consider “cyclo(-Phe(4CN)-Cyp-Trp-Ser-^DPip-Hyp(Bn)-) (peptide)”, for which the IC50 (nM) Calcium Flux Assay came out at 0.5 nM and the IC50 (nM) Chemotaxis Assay was 1.8 nM.
Regarding “cyclo(-Trp-Cyp-Trp-Dab-^DPro-Pro((4S)F)-) (peptide)”, the IC50 (nM) Calcium Flux Assay was determined as 860 nM and the IC50 (nM) Chemotaxis Assay was 42 nM.
Taken in the same sequence, the figures for “cyclo(-Trp-Cyp-Trp-Lys((5R)OH)-^DPro-Oic-) (peptide)” were 333 nM and 7 nM.
In the case of cyclo(W[Aib]W[Dab][dP][Tic]), the IC50 (nM) Calcium Flux Assay amounted to 200 nM and the IC50 (nM) Chemotaxis Assay was 21.6 nM.
Consider “cyclo(-Trp-Cyp-2Nal-Gln-^DPro-Oic-) (peptide)”, for which the IC50 (nM) Calcium Flux Assay stood at 35.3 nM.
Turning to “cyclo(-Phe(4CN)-Cyp-Trp-Dab-^DPro-Hyp(Bn)-) (peptide)”, the IC50 (nM) Calcium Flux Assay turned out to be 181 nM and the IC50 (nM) Chemotaxis Assay is 5.3 nM.
On to “cyclo(-Trp-Cyp-Trp-Dab((MeO(CH2)2)(Me)NCO)-^DPro-Oic-) (peptide)”, for which the IC50 (nM) Calcium Flux Assay worked out at 8.1 nM and the IC50 (nM) Chemotaxis Assay is 5.6 nM.
“cyclo(-Trp-Cyp-Trp-Dab-^DPro-Hyp(Ph)-) (peptide)”: the IC50 (nM) Calcium Flux Assay came out at 42 nM and the IC50 (nM) Chemotaxis Assay was 37 nM.
The corresponding values for “cyclo(-Trp-Chx(4-oxo)-Trp-Dab-^DPro-Oic-) (peptide)” are 262 nM and 17.8 nM.
Take “cyclo(-Trp-Cyp-Trp-Lys(Bz)-^DPro-Oic-) (peptide)”: the IC50 (nM) Calcium Flux Assay amounted to 3 nM and the IC50 (nM) Chemotaxis Assay turned out to be 2.7 nM.
As to “cyclo(-Trp-Cyp-Phe(4F)-Dab-^DPro-Oic-) (peptide)”, the IC50 (nM) Calcium Flux Assay stood at 120 nM.
For “cyclo(-Trp-Cyp-Trp-Dab-^DPro-Hyp(3CNBn)-) (peptide)”, the IC50 (nM) Calcium Flux Assay came to 127 nM and the IC50 (nM) Chemotaxis Assay was 50.7 nM.
As to “cyclo(-Trp-Cyp-Trp-Dap(MeO(CH2)2)-^DPro-Oic-) (peptide)”, the IC50 (nM) Calcium Flux Assay came to 56.8 nM and the IC50 (nM) Chemotaxis Assay was 6.9 nM.
“cyclo(-Nle(6OBn)-Cyp-Trp-Dab-^DPro-Oic-) (peptide)” yielded an IC50 (nM) Chemotaxis Assay of 16.6 nM.
With “cyclo(-Trp-Cyp-Trp-Arg-^DAze-Tic-) (peptide)”, the IC50 (nM) Calcium Flux Assay was 70.4 nM.
Turning to cyclo(W[Aib]WR[dP][Tic]), the IC50 (nM) Calcium Flux Assay is 226 nM and the IC50 (nM) Chemotaxis Assay amounted to 94 nM.
As for “cyclo(-Tyr(40HPh)-Cyp-Trp-Dab-^DPro-Oic-) (peptide)”, the IC50 (nM) Calcium Flux Assay was 48.9 nM and the IC50 (nM) Chemotaxis Assay is 6.6 nM.
With “cyclo(-Trp-Cyp-Trp-Dab-^DAze-Tic-) (peptide)”, the IC50 (nM) Calcium Flux Assay was 57 nM.
“cyclo(-Trp-Cyp-Trp-Dap(CONH2)-^DPro-Oic-) (peptide)”: the IC50 (nM) Calcium Flux Assay was 20 nM and the IC50 (nM) Chemotaxis Assay is 4.7 nM.
As to “cyclo(-Bbta-Cyp-Trp-Dab-^DPro-Oic-) (peptide)”, the IC50 (nM) Calcium Flux Assay was determined as 220 nM and the IC50 (nM) Chemotaxis Assay stood at 18.9 nM.
With “cyclo(-Phe(4COOMe)-Cyp-Trp-Dab-^DPro-Oic-) (peptide)”, the IC50 (nM) Calcium Flux Assay turned out to be 476 nM and the IC50 (nM) Chemotaxis Assay was found to be 14.7 nM.
Regarding “cyclo(-Trp-Cyp-Trp-hArg-^DPro-Oic-) (peptide)”, the IC50 (nM) Calcium Flux Assay was determined as 25 nM and the IC50 (nM) Chemotaxis Assay is 3.7 nM.
Regarding “cyclo(-Trp-Cyp-Trp-Ala(Ppz)-^DPro-Oic-) (peptide)”, the IC50 (nM) Calcium Flux Assay was determined as 1060 nM and the IC50 (nM) Chemotaxis Assay amounted to 16.4 nM.
In the case of “cyclo(-Trp(5OH)-Chx-Trp(5OH)-Arg-^DPro-Oic-) (peptide)”, the IC50 (nM) Calcium Flux Assay was found to be 548 nM and the IC50 (nM) Chemotaxis Assay was 11.6 nM.
For “cyclo(-Trp-Cyp-Trp-hSer(Me)-^DPro-Oic-) (peptide)”, the IC50 (nM) Calcium Flux Assay turned out to be 12 nM and the IC50 (nM) Chemotaxis Assay was determined as 1.8 nM.
As to “cyclo(-Trp(6Cl)-Cyp-Trp-Dab-^DPro-Hyp(Bn)-) (peptide)”, the IC50 (nM) Calcium Flux Assay stood at 8.5 nM and the IC50 (nM) Chemotaxis Assay was found to be 8.6 nM.
For “cyclo(-Trp-Cyp-Trp-Dab(MeSO2)-^DPro-Oic-) (peptide)”, the IC50 (nM) Calcium Flux Assay stood at 0.2 nM and the IC50 (nM) Chemotaxis Assay stood at 3.4 nM.
Regarding “cyclo(-Phe(4CN)-Cyp-Trp-Gln-^DPro-Hyp(Bn)-) (peptide)”, the IC50 (nM) Calcium Flux Assay turned out to be 21.7 nM.
On the same count and under the same terms, with “cyclo(-Cha-Cyp-Trp-Dab-^DPro-Oic-) (peptide)” the figure was 243 nM.
As for “cyclo(-Trp-Cyp-Trp-Dap((MeO(CH2)2)2)-^DPro-Oic-) (peptide)”, the IC50 (nM) Calcium Flux Assay was 399 nM and the IC50 (nM) Chemotaxis Assay stood at 15.2 nM.
With “cyclo(-Phe(4CN)-Cyp-Trp-Dab-^DPro-Oic-) (peptide)”, the IC50 (nM) Calcium Flux Assay was 280 nM and the IC50 (nM) Chemotaxis Assay amounted to 48 nM.
As to “cyclo(-Trp-4,4-AC-ThioTHP-Trp-Dab-^DPro-Oic-) (peptide)”, the IC50 (nM) Calcium Flux Assay is 823 nM and the IC50 (nM) Chemotaxis Assay worked out at 21.9 nM.
For “cyclo(-Trp-Cyp-Trp-Ser-^DPro-Hyp(Bn)-) (peptide)”, the IC50 (nM) Calcium Flux Assay amounted to 12.6 nM and the IC50 (nM) Chemotaxis Assay was found to be 35.4 nM.
For the substance “cyclo(-Trp-Cyp-Trp-Arg-^DPro-Tic(7OH)-) (peptide)”, the IC50 (nM) Calcium Flux Assay was 78.5 nM.
As to “cyclo(-Phe(3CF3)-Cyp-Trp-Dab-^DPro-Oic-) (peptide)”, the IC50 (nM) Calcium Flux Assay was 41.1 nM and the IC50 (nM) Chemotaxis Assay stood at 3.2 nM.
For the substance “cyclo(-Trp-Cyp-Trp-Dab-^DPro-Hyp(4CNBn)-) (peptide)”, the IC50 (nM) Calcium Flux Assay was 48.9 nM and the IC50 (nM) Chemotaxis Assay was determined as 143 nM.
